This assay concerns the target mAb 2F5. The assay can be described thus: cell-based or functional assay.

Drawing on US20120128758A1, this text covers IC50 of 2F5 mAb against TND-669S pseudovirus after pre-absorption with 0.3 µM peptide for one molecule.

As to QQEKNEQELLELDKWASLWN (modifications not checked) [SP62 peptide (gp41 652-671), …], the IC50 of 2F5 mAb against TND-669S pseudovirus after pre-absorption with 0.3 µM peptide turned out to be 0.911 µg/mL.
